According to US20210008207A1 (TECHNISCHE UNIVERSIT T M NCHEN, published 2021):

Experiments:
[1] = biological target: T1, recombinant human CEACAM1 N-domain (C1ND; residues 35-142) with C-terminal Strep-Tag II, made in Expi293 cells (human, UniProt P13688 35-142, N-glycosylated (three glycosylation forms beside the non-glycosylated protein)); assay: isothermal titration calorimetry, 25 °C; ITC in solution, folded glycosylated C1ND; stoichiometry, not affinity
T1 construct: range 35-142; also called N-terminal domain of human CEACAM1; huCEACAM1-ND; not shown: C-terminal Strep-Tag II
T1 sequence: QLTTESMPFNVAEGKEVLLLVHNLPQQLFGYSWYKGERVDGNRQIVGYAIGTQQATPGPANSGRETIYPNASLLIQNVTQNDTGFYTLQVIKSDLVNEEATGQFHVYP

CEACAM8 = biological target: T2, CEACAM8 (human (species not restated for this …, UniProt P31997)); assay: ELISA, panel CEACAM8; protein titrated [cont.) f]
T2 sequence: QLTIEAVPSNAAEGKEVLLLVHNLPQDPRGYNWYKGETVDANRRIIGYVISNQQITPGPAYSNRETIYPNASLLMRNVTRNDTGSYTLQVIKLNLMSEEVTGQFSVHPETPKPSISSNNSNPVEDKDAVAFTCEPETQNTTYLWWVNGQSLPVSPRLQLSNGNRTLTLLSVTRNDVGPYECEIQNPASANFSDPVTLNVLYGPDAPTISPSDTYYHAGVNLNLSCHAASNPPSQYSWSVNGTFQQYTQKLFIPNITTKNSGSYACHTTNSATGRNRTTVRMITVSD

[2] = biological target: T1, recombinant human CEACAM1 N-domain …; assay: ITC; 25 µM C1ND in the cell titrated with 250 µM HopQ^AD, 25 °C
CEACAM5 = biological target: T3, CEACAM5 (human (species not restated for this …, UniProt P06731)); assay: ELISA, panel CEACAM5; HopQ fragment titrated [cont.) f]
T3 sequence: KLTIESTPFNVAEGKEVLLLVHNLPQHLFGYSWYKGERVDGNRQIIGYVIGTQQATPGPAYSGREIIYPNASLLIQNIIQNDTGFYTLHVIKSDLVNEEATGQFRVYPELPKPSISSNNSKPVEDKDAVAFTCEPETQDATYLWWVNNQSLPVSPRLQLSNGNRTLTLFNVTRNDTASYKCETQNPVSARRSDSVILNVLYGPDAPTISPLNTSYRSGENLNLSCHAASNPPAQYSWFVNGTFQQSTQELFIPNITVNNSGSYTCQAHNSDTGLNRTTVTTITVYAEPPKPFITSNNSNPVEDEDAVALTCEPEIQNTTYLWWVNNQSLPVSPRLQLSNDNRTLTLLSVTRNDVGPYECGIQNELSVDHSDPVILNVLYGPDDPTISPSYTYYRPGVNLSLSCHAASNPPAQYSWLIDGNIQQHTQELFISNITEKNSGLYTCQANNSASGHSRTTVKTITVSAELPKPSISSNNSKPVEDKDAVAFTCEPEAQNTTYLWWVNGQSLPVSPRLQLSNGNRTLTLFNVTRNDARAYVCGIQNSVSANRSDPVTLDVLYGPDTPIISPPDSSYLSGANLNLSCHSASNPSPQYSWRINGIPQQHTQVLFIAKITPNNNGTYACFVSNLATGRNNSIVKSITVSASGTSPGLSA

[3] = biological target: T4, E. coli expressed human CEACAM1 N-domain (Ec-C1ND) with C-terminal His6 tag, non-glycosylated (human, UniProt P13688 35-142); assay: ITC; 25 µM Ec-C1ND in the cell titrated with 250 µM HopQ^AD, 25 °C
T4 construct: range 35-142; also called non-glycosylated N-terminal domain of human CEACAM1; hC1ND
T4 sequence: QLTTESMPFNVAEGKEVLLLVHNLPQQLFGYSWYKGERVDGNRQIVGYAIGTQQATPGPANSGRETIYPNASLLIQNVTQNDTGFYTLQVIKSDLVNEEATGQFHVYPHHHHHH

[4] = biological target: T1, recombinant human CEACAM1 N-domain …; assay: isothermal titration calorimetry, 25 °C; ITC in solution, folded glycosylated C1ND (FIG. 8a)
[5] = biological target: T1, recombinant human CEACAM1 N-domain …; assay: ELISA; C1ND coated, HopQ fragment titrated, α-6×His-HRP detection
[6] = biological target: T1, recombinant human CEACAM1 N-domain …; assay: ELISA, C1ND coated, His-tag detected

B1: HopQ adhesin domain (HopQ^AD), type I HopQ fragment of H. pylori strain G27, residues 37-463 (residu (other)
chain: AVQKVKNADKVQKLSDTYEQLSRLLTNDNGTNSKTSAQAINQAVNNLNERAKTLAGGTTNSPAYQATLLALRSVLGLWNSMGYAVICGGYTKSPGENNQKDFHYTDENGNGTTINCGGSTNSNGTHSYNGTNTLKADKNVSLSIEQYEKIHEAYQILSKALKQAGLAPLNSKGEKLEAHVTTSKYQQDNQTKTTTSVIDTTNDAQNLLTQAQTIVNTLKDYCPILIAKSSSSNGGTNNANTPSWQTAGGGKNSCATFGAEFSAASDMINNAQKIVQETQQLSANQPKNITQPHNLNLNSPSSLTALAQKMLKNAQSQAEILKLANQVESDFNKLSSGHLKDYIGKCDASAISSANMTMQNQKNNWGNGCAGVEETQSLLKTSAADFNNQTPQINQAQNLANTLIQELGNNPFRNMGMIASSTTNNGAHHHHHH
notes: also called HopQ^AD I
[1]
  stoichiometry: 1 HopQ^AD per C1ND
CEACAM8
  binding result: no binding (tested: 10 µg/well)
[2]
  ΔH: -13 kcal/mol
  ΔS: -13.7 cal/mol/deg
CEACAM5
  EC50 (read off the curve): ~0.04 µg/well
[3]
  Kd: 417 nM
  ΔH: -16.7 kcal/mol
  ΔS: -26.8 cal/mol/deg
[4]
  Kd: 296 nM
[5]
  EC50 (read off the curve): ~0.2 µg/well

B2: HopQ^ADΔID, HopQ^AD in which amino acids 190-218 of the mature protein (the HopQ insertion domain) are replaced by two glycines (other)
chain: AVQKVKNADKVQKLSDTYEQLSRLLTNDNGTNSKTSAQAINQAVNNLNERAKTLAGGTTNSPAYQATLLALRSVLGLWNSMGYAVICGGYTKSPGENNQKDFHYTDENGNGTTINCGGSTNSNGTHSYNGTNTLKADKNVSLSIEQYEKIHEAYQILSKALKQAGLAPLNSKGGGDAQNLLTQAQTIVNTLKDYCPILIAKSSSSNGGTNNANTPSWQTAGGGKNSCATFGAEFSAASDMINNAQKIVQETQQLSANQPKNITQPHNLNLNSPSSLTALAQKMLKNAQSQAEILKLANQVESDFNKLSSGHLKDYIGKCDASAISSANMTMQNQKNNWGNGCAGVEETQSLLKTSAADFNNQTPQINQAQNLANTLIQELGNNPFRNMGMIASSTTNNGAHHHHHH
notes: also called HopQ-ID deletion mutant; mutant HopQ^AD lacking the HopQ-ID
CEACAM8
  binding result: no binding (tested: 10 µg/well)
CEACAM5
  EC50 (read off the curve): ~0.08 µg/well
[6]
  fold reduction of binding affinity against HopQ^AD: ~10 fold
